According to US20140363844:

Legend:
[1] = biological target: T1, Dianthus Precursor B[14,32]
T1 chain: GYKDCCVQAKDLENAAVPV

Presegetalin A1[14,20] = biological target: T2, Presegetalin A1[14,20]
T2 chain: GVPVWAF

Presegetalin A1[14,24] = biological target: T3, Presegetalin A1[14,24]
T3 chain: GVPVWAFQAKD

Presegetalin A1[14,28] = biological target: T4, Presegetalin A1[14,28]
T4 chain: GVPVWAFQAKDVENA

[2] = biological target: T5, Presegetalin A1[14,32] ins 16AAA17
T5 chain: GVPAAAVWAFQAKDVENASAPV

[3] = biological target: T6, Presegetalin A1[14,32]A19V
T6 chain: GVPVWVFQAKDVENASAPV

[4] = biological target: T7, Presegetalin A1[14,32]A19a
T7 chain: GVPVWAFQAKDVENASAPV

[5] = biological target: T8, Presegetalin A1[14,32]A22V
T8 chain: GVPVWAFQVKDVENASAPV

[6] = biological target: T9, Presegetalin A1[14,32]A28V
T9 chain: GVPVWAFQAKDVENVSAPV

[7] = biological target: T10, Presegetalin A1[14,32]A30V
T10 chain: GVPVWAFQAKDVENASVPV

[8] = biological target: T11, Presegetalin A1[14,32]D24A
T11 chain: GVPVWAFQAKAVENASAPV

[9] = biological target: T12, Presegetalin A1[14,32]E26A
T12 chain: GVPVWAFQAKDVANASAPV

[10] = biological target: T13, Presegetalin A1[14,32]F20A
T13 chain: GVPVWAAQAKDVENASAPV

[11] = biological target: T14, Presegetalin A1[14,32]G14A
T14 chain: AVPVWAFQAKDVENASAPV

Presegetalin A1[14,32] = biological target: T15, Presegetalin A1[14,32]
T15 chain: GVPVWAFQAKDVENASAPV

[12] = biological target: T16, Presegetalin A1[14,32]K23A
T16 chain: GVPVWAFQAADVENASAPV

[13] = biological target: T17, Presegetalin A1[14,32]N27A
T17 chain: GVPVWAFQAKDVEAASAPV

[14] = biological target: T18, Presegetalin A1[14,32]P16A
T18 chain: GVAVWAFQAKDVENASAPV

[15] = biological target: T19, Presegetalin A1[14,32]P16p
T19 chain: GVPVWAFQAKDVENASAPV

[16] = biological target: T20, Presegetalin A1[14,32]P31A
T20 chain: GVPVWAFQAKDVENASAAV

[17] = biological target: T21, Presegetalin A1[14,32]Q21A
T21 chain: GVPVWAFAAKDVENASAPV

[18] = biological target: T22, Presegetalin A1[14,32]S29A
T22 chain: GVPVWAFQAKDVENAAAPV

[19] = biological target: T23, Presegetalin A1[14,32]V15A
T23 chain: GAPVWAFQAKDVENASAPV

[20] = biological target: T24, Presegetalin A1[14,32]V15v
T24 chain: GVPVWAFQAKDVENASAPV

[21] = biological target: T25, Presegetalin A1[14,32]V17A
T25 chain: GVPAWAFQAKDVENASAPV

[22] = biological target: T26, Presegetalin A1[14,32]V17v
T26 chain: GVPVWAFQAKDVENASAPV

[23] = biological target: T27, Presegetalin A1[14,32]V25A
T27 chain: GVPVWAFQAKDAENASAPV

[24] = biological target: T28, Presegetalin A1[14,32]W18A
T28 chain: GVPVAAFQAKDVENASAPV

Presegetalin B1[14,31] = biological target: T29, Presegetalin B1[14,31]
T29 chain: GVAWAFQAKDVENASAPV

Presegetalin D1[14,31] = biological target: T30, Presegetalin D1[14,31]
T30 chain: GLSFAFPAKDAENASSPV

Presegetalin G1[14,31] = biological target: T31, Presegetalin G1[14,31]
T31 chain: GVKYAFQPKDSENASAPV

Presegetalin H1[14,31] = biological target: T32, Presegetalin H1[14,31]
T32 chain: GYRFSFQAKDAENASAPV

Presegetalin J1[14,36] = biological target: T33, Presegetalin J1[14,36]
T33 chain: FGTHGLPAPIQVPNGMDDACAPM

Presegetalin L1[14,32] = biological target: T34, Presegetalin L1[14,32]
T34 chain: GLPGWPFQAKDVENASAPV

B1: Saponaria vaccaria PCY1 (recombinant, N-terminal His6-tag, expressed in E. coli from pCB008) (protein)
chain: MATSGFSKPLHYPPVRRDETVVDDYFGVKVADPYRWLEDPNSEETKEFVDNQEKLANSVLEECELIDKFKQKIIDFVNFPRCGVPFRRANKYFHFYNSGLQAQNVFQMQDDLDGKPEVLYDPNLREGGRSGLSLYSVSEDAKYFAFGIHSGLTEWVTIKILKTEDRSYLPDTLEWVKFSPAIWTHDNKGFFYCPYPPLKEGEDHMTRSAVNQEARYHFLGTDQSEDILLWRDLENPAHHLKCQITDDGKYFLLYILDGCDDANKVYCLDLTKLPNGLESFRGREDSAPFMKLIDSFDASYTAIANDGSVFTFQTNKDAPRKKLVRVDLNNPSVWTDLVPESKKDLLESAHAVNENQLILRYLSDVKHVLEIRDLESGALQHRLPIDIGSVDGITARRRDSVVFFKFTSILTPGIVYQCDLKNDPTQLKIFRESVVPDFDRSEFEVKQVFVPSKDGTKIPIFIAARKGISLDGSHPCEMHGYGGFGINMMPTFSASRIVFLKHLGGVFCLANIRGGGEYGEEWHKAGFRDKKQNVFDDFISAAEYLISSGYTKARRVAIEGGSNGGLLVAACINQRPDLFGCAEANCGVMDMLRFHKFTLGYLWTGDYGCSDKEEEFKWLIKYSPIHNVRRPWEQPGNEETQYPATMILTADHDDRVVPLHSFKLLATMQHVLCTSLEDSPQKNPIIARIQRKAAHYGRATMTQIAEVADRYGFMAKALEAPWID
CP (cyclic peptide product detected by LC/MS) [1]: -
LP (linear peptide product detected by LC/MS) [1]: -
CP (cyclic peptide product detected by LC/MS) (Presegetalin A1[14,20]): -
LP (linear peptide product detected by LC/MS) (Presegetalin A1[14,20]): -
CP (cyclic peptide product detected by LC/MS) (Presegetalin A1[14,24]): -
LP (linear peptide product detected by LC/MS) (Presegetalin A1[14,24]): +
linear peptide formation (LC/MS, MS/MS) (Presegetalin A1[14,24]): showed linear peptide formation almost equivalent to the linear peptide formed from the WT substrate (No. 1)
CP (cyclic peptide product detected by LC/MS) (Presegetalin A1[14,28]): -
LP (linear peptide product detected by LC/MS) (Presegetalin A1[14,28]): +
linear peptide formation (LC/MS, MS/MS) (Presegetalin A1[14,28]): showed linear peptide formation almost equivalent to the linear peptide formed from the WT substrate (No. 1)
CP (cyclic peptide product detected by LC/MS) [2]: +
LP (linear peptide product detected by LC/MS) [2]: +
CP (cyclic peptide product detected by LC/MS) [3]: -
LP (linear peptide product detected by LC/MS) [3]: -
CP (cyclic peptide product detected by LC/MS) [4]: -
LP (linear peptide product detected by LC/MS) [4]: -
CP (cyclic peptide product detected by LC/MS) [5]: +
LP (linear peptide product detected by LC/MS) [5]: +
linear segetalin A production relative to WT substrate [5]: showed a relative increase in production of linear segetalin A
CP (cyclic peptide product detected by LC/MS) [6]: +
LP (linear peptide product detected by LC/MS) [6]: +
linear segetalin A production relative to WT substrate [6]: showed a relative increase in production of linear segetalin A
segetalin A production relative to WT substrate [6]: positions were found to be sensitive to substitution ... position 20, 21, 23, 24, 27, 28 and 31
CP (cyclic peptide product detected by LC/MS) [7]: +
LP (linear peptide product detected by LC/MS) [7]: +
linear segetalin A production relative to WT substrate [7]: showed a relative increase in production of linear segetalin A
CP (cyclic peptide product detected by LC/MS) [8]: +
LP (linear peptide product detected by LC/MS) [8]: +
linear segetalin A production relative to WT substrate [8]: showed a relative increase in production of linear segetalin A
segetalin A production relative to WT substrate [8]: segetalin A production was found to be ≧42 times lower than the WT substrate
CP (cyclic peptide product detected by LC/MS) [9]: +
LP (linear peptide product detected by LC/MS) [9]: +
linear segetalin A production relative to WT substrate [9]: showed a relative increase in production of linear segetalin A
segetalin A production relative to WT substrate [9]: substitutions at positions 25, 26 and 29 (No. 18, 19 and 22) yielded relatively higher amounts of segetalin A than that produced from WT substrate
CP (cyclic peptide product detected by LC/MS) [10]: +
LP (linear peptide product detected by LC/MS) [10]: +
linear segetalin A production relative to WT substrate [10]: a relative increase in production of linear segetalin A from all mutant substrates except with No. 13 and No. 14
segetalin A production relative to WT substrate [10]: segetalin A production was found to be ≧42 times lower than the WT substrate
CP (cyclic peptide product detected by LC/MS) [11]: +
LP (linear peptide product detected by LC/MS) [11]: +
linear peptide product in LC/MS [11]: the highest amount of linear peptide product was detected with No. 7
relative intensity of cyclic peptide product in LC/MS [11]: makes less product (cyclic peptide) with the substitution of glycine to alanine at the first position in segetalin A (No. 7) than with No. 8 to 11
CP (cyclic peptide product detected by LC/MS) (Presegetalin A1[14,32]): +
LP (linear peptide product detected by LC/MS) (Presegetalin A1[14,32]): +
PCY1 activity (total amount of segetalin A produced) (Presegetalin A1[14,32]): 3 nmol/mg of protein/min
formation of segetalin A and linear segetalin A (LC/MS) (Presegetalin A1[14,32]): purified PCY1 showed the formation of segetalin A and linear segetalin A in the presence of presegetalin A1[14,32]
CP (cyclic peptide product detected by LC/MS) [12]: +
LP (linear peptide product detected by LC/MS) [12]: +
linear segetalin A production relative to WT substrate [12]: showed a relative increase in production of linear segetalin A
segetalin A production relative to WT substrate [12]: positions were found to be sensitive to substitution ... position 20, 21, 23, 24, 27, 28 and 31
CP (cyclic peptide product detected by LC/MS) [13]: +
LP (linear peptide product detected by LC/MS) [13]: +
linear segetalin A production relative to WT substrate [13]: showed a relative increase in production of linear segetalin A
segetalin A production relative to WT substrate [13]: positions were found to be sensitive to substitution ... position 20, 21, 23, 24, 27, 28 and 31
CP (cyclic peptide product detected by LC/MS) [14]: +
LP (linear peptide product detected by LC/MS) [14]: +
CP (cyclic peptide product detected by LC/MS) [15]: +
LP (linear peptide product detected by LC/MS) [15]: -
CP (cyclic peptide product detected by LC/MS) [16]: +
LP (linear peptide product detected by LC/MS) [16]: +
linear segetalin A production relative to WT substrate [16]: showed a relative increase in production of linear segetalin A
segetalin A production relative to WT substrate [16]: the P31A mutant (No. 24 in Table 3) was found to yield […]11 times less segetalin A than that produced from the WT substrate
CP (cyclic peptide product detected by LC/MS) [17]: +
LP (linear peptide product detected by LC/MS) [17]: +
linear segetalin A production relative to WT substrate [17]: a relative increase in production of linear segetalin A from all mutant substrates except with No. 13 and No. 14
segetalin A production relative to WT substrate [17]: positions were found to be sensitive to substitution ... position 20, 21, 23, 24, 27, 28 and 31
CP (cyclic peptide product detected by LC/MS) [18]: +
LP (linear peptide product detected by LC/MS) [18]: +
linear segetalin A production relative to WT substrate [18]: showed a relative increase in production of linear segetalin A
segetalin A production relative to WT substrate [18]: yielded a 30% increase in segetalin A production relative to wild type presegetalin A1[14,32]
CP (cyclic peptide product detected by LC/MS) [19]: +
LP (linear peptide product detected by LC/MS) [19]: +
CP (cyclic peptide product detected by LC/MS) [20]: +
LP (linear peptide product detected by LC/MS) [20]: +
CP (cyclic peptide product detected by LC/MS) [21]: +
LP (linear peptide product detected by LC/MS) [21]: +
CP (cyclic peptide product detected by LC/MS) [22]: +
LP (linear peptide product detected by LC/MS) [22]: -
CP (cyclic peptide product detected by LC/MS) [23]: +
LP (linear peptide product detected by LC/MS) [23]: +
linear segetalin A production relative to WT substrate [23]: showed a relative increase in production of linear segetalin A
segetalin A production relative to WT substrate [23]: substitutions at positions 25, 26 and 29 (No. 18, 19 and 22) yielded relatively higher amounts of segetalin A than that produced from WT substrate
CP (cyclic peptide product detected by LC/MS) [24]: +
LP (linear peptide product detected by LC/MS) [24]: -
CP (cyclic peptide product detected by LC/MS) (Presegetalin B1[14,31]): +
LP (linear peptide product detected by LC/MS) (Presegetalin B1[14,31]): -
CP (cyclic peptide product detected by LC/MS) (Presegetalin D1[14,31]): +
LP (linear peptide product detected by LC/MS) (Presegetalin D1[14,31]): +
CP (cyclic peptide product detected by LC/MS) (Presegetalin G1[14,31]): +
LP (linear peptide product detected by LC/MS) (Presegetalin G1[14,31]): -
CP (cyclic peptide product detected by LC/MS) (Presegetalin H1[14,31]): +
LP (linear peptide product detected by LC/MS) (Presegetalin H1[14,31]): -
CP (cyclic peptide product detected by LC/MS) (Presegetalin J1[14,36]): +
LP (linear peptide product detected by LC/MS) (Presegetalin J1[14,36]): -
CP (cyclic peptide product detected by LC/MS) (Presegetalin L1[14,32]): +
LP (linear peptide product detected by LC/MS) (Presegetalin L1[14,32]): -
